Numbering of substitutions follows the chain as printed.
Columns and labels:
[1] = molecular target: T1, human thymic stromal lymphopoietin (TSLP) (human, UniProt Q969D9 29-159); test: cell-based or functional assay
cynomolgus monkey TSLP [2] = molecular target: T2, cynomolgus monkey TSLP (cynomolgus monkey); test: cell-based or functional assay
T2 chain: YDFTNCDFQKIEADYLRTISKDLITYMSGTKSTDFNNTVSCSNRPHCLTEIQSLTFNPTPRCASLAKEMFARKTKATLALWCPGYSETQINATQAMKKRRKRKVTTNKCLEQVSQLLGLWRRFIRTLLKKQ

cynomolgus monkey TSLP [3] = molecular target: T2, cynomolgus monkey TSLP; test: indirect ELISA, coated cyno TSLP; 95% CI in brackets
Description: (§1) The next day, the plates were washed three times with ELISA wash buffer and blocked with ELISA assay diluent B (BioLegend) for one hour at room temperature (RT). […] Antibody binding was assessed using an 8-point titration curve in triplicates (1:3 serial dilution starting at 10 μg/mL). The plate was washed three times with ELISA wash buffer, and HRP-conjugated anti-human IgG-HRP secondary antibody (Jackson ImmunoResearch Laboratories, Inc.) was added to wells at a 1:5000 dilution in 1×ELISA assay diluent. Secondary antibody was added to detect binding of the primary antibody to the antigen. The plate was incubated for 30 minutes at room temperature with the secondary detection antibody, then the plates were washed three times with ELISA wash buffer and developed with TMB substrate solution (Invitrogen, Waltham, MA). The HRP enzymatic reaction was stopped after about 1 minute with acidic stop solution (Invitrogen), and the absorbance at 450 nm on a Biotek plate reader.
(§2) The EC₅₀ values were calculated using Graphpad Prism 9.2.0 by fitting a four-parameter non-linear regression curve to the average absorbance values of three technical replicates per concentration with three independent experiments. […] N=4 independent experiments with 3 technical replicates. […] N=3 independent experiments with 3 technical replicates.

[4] = molecular target: T1, human thymic stromal lymphopoietin …; test: indirect ELISA, coated human TSLP; 95% CI in brackets
Description: as §1, §2

mouse TSLP = molecular target: T3, mouse TSLP (mouse, UniProt Q9JIE6 20-140); test: direct ELISA: plate coated with 2 µg/mL mouse TSLP, anti-human IgG-HRP, absorbance at 450 nm
T3 construct: also called mouse TSLP cytokine
T3 sequence (looked up): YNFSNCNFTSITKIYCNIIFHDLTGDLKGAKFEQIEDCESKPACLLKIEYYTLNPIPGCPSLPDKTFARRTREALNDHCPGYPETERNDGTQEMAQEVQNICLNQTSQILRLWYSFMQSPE
Description: as §1, §2

human IL-7 = molecular target: T4, human IL-7 (human, UniProt P13232 26-177); test: direct ELISA: plate coated with 2 µg/mL human IL-7, anti-human IgG-HRP, absorbance at 450 nm
T4 construct: also called hIL-7
T4 sequence (looked up): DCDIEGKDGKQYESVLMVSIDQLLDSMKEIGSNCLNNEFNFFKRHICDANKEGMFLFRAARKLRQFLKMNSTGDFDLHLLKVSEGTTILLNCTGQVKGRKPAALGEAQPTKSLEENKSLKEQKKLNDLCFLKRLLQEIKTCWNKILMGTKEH

[5] = molecular target: T1, human thymic stromal lymphopoietin …; test: KinExA, solution equilibrium, 25 C
Description: The solution equilibrium binding experiments were performed using KinExA 3200 instrument equipped with an autosampler (Sapidyne Instruments, Boise, ID, USA). All analyses were performed at 25° C., and all samples were prepared in 1× phosphate-buffered saline (PBS) filtered buffer supplemented with 1 mg/mL bovine serum albumin (BSA) and 0.02% sodium azide. […] The beads were washed with blocking buffer (1 M Tris supplemented with 10 mg/mL BSA, pH 8.0) and rocked for 1 hour.
The sample injection volumes and flow rates were varied depending upon the antibody tested. […] The concentration, volume and flow rate of the secondary antibody were varied to achieve a signal at less than 1.0 V.
A 1:1 binding equilibrium model was used with the titrant selected as the reference concentration. The drift correction option was used where appropriate.

[6] = molecular target: T1, human thymic stromal lymphopoietin …; test: indirect ELISA, coated recombinant hTSLP
Description: The next day, the plate was washed three times with ELISA Wash Buffer (PBS-Tween 0.5%), blocked with 1×ELISA assay diluent (BioLegend) for one hour. […] The plate was washed three times with ELISA Wash Buffer, and horseradish peroxidase (HRP)-conjugated anti-human IgG Fc secondary antibody (Promega, Madison, WI) at 1:2000 dilution in 1×ELISA assay diluent was added to detect binding of the primary antibody to the antigen. The plate was incubated for 30 minutes at 37° C. with the secondary detection antibody, then the plate was washed and developed with tetramethyl benzidine (TMB) substrate solution (Thermo Fisher Scientific, Waltham, MA). The HRP enzymatic reaction was stopped after about 1 minute with acidic stop solution (Thermo Fisher Scientific), and the absorbance at 450 nm was determined using a standard plate reader. The EC₅₀ values were calculated by fitting a four-parameter non-linear regression line to the average of two technical replicates per concentration.

[7] = molecular target: T1, human thymic stromal lymphopoietin …; test: blocking ELISA: antibody titrated against hTSLP-biotin, coated hTSLPR/hIL-7Rα-Fc
Description: A 96 well half area flat bottom plate was coated with 50 μL of recombinant heterodimeric human TSLPR and human IL-7Rα Fe tagged fusion protein (2 μg/mL) in ELISA coating buffer. The plate was incubated overnight at 4° C. and was washed thrice with 150 μL ELISA Wash Buffer (1×PBS-Tween 0.5%) the next day. The plate was blocked with 50 μL of ELISA assay diluent for one hour at 37° C. and was washed three times with 150 μL of ELISA wash buffer. […] The ELISA plate was incubated for 1 hour at 37° C. followed by washing three times with ELISA wash buffer. HRP-Streptavidin (Thermo Fisher Scientific) was diluted 1:2000 in ELISA assay diluent 50 μl was added to each well and incubated for 30 minutes at 37° C. followed by washing three times with ELISA wash buffer. The ELISA was developed by addition of 50 μL of TMB substrate (Thermo Fisher Scientific) and incubation for 2-3 minutes at room temperature (protected from light). The reaction was stopped with acidic stop solution (Thermo Fisher Scientific), and the absorbance was read at 450 nm wavelength using a standard plate reader. Percent inhibition of signal and IC₅₀ values were determined.
A blocking ELISA was performed by coating an ELISA plate with hTSLPR overnight. […] The ELISA plate was incubated for 1 hour at 37° C., followed by washing of the plate. […] The ELISA was developed with TMB substrate, and the HRP enzymatic reaction was stopped with sulfuric acid solution.

B1: AB-2a (antibody, human IgG1, lambda)
heavy: not shown
light: SYVLTQPPSVSVAPGQTARITCGGNNIGSKSVHWYQQKPGQAPVLVVYDDSDRPSWIPERFSGSNSGNTATLTISRGEAGDEADYYCQIWDSSSSLVVFGGGTKLTVLGQPKAAPSVTLFPPSSEELQANKATLVCLISDFYPGAVTVAWKADSSPVKAGVETTTPSKQSNNKYAASSYLSLTPEQWKSHRSYSCQVTHEGSTVEKTVAPTECS
Q: With B1 as the binder, how does the “IC50, human TSLPR/IL-7Rα Ba/F3 STAT5-luciferase assay” value [1] read?
A: Its value is 0.02 µg/mL.

Q: And the “IC50, cyno TSLPR/IL-7Rα Ba/F3 STAT5-luciferase assay” value (cynomolgus monkey TSLP [2])?
A: The value was 0.03 µg/mL.

Q: And the EC80 (cynomolgus monkey TSLP [3])?
A: Its EC80 is 0.1 µg/mL.

Q: What about the EC50 [4] of the same binder?
A: Its EC50 is 0.03 µg/mL.

Q: What about the EC80 [4] of the same binder?
A: The EC80 was 0.09 µg/mL.

Q: What about the EC90 [4] of the same binder?
A: Its EC90 is 0.15 µg/mL.

Q: Does B1 bind (mouse TSLP)?
A: Result: no binding (tested: about 5 µg/ml)

B2: AB-2b (antibody, human IgG1, lambda)
heavy: QMQLVESGGGVVQPGRSLRLSCAASGFTFRTYGMHWVRQAPGKGLEWVAVVWYDGSYTHYADSVKGRFTITRDNSKNTLNLQMNSLRAEDTAVYYCARSPQWEEIFEAMDIWGQGTMVTVSSASTKGPSVFPLAPSSKSTSGGTAALGCLVKDYFPEPVTVSWNSGALTSGVHTFPAVLQSSGLYSLSSVVTVPSSSLGTQTYICNVNHKPSNTKVDKRVEPKSCDKTHTCPPCPAPELLGGPSVFLFPPKPKDTLYITREPEVTCVVVDVSHEDPEVKFNWYVDGVEVHNAKTKPREEQYNSTYRVVSVLTVLHQDWLNGKEYKCKVSNKALPAPIEKTISKAKGQPREPQVYTLPPSREEMTKNQVSLTCLVKGFYPSDIAVEWESNGQPENNYKTTPPVLDSDGSFFLYSKLTVDKSRWQQGNVFSCSVMHEALHNHYTQKSLSLSPGK
light: B1 light
Q: With B2 as the binder, how does the “IC50, human TSLPR/IL-7Rα Ba/F3 STAT5-luciferase assay” value [1] read?
A: Its value is 0.03 µg/mL.

Q: And the “IC50, cyno TSLPR/IL-7Rα Ba/F3 STAT5-luciferase assay” value (cynomolgus monkey TSLP [2])?
A: The value was 0.04 µg/mL.

Q: And the EC80 (cynomolgus monkey TSLP [3])?
A: Its EC80 is 0.1 µg/mL.

Q: What about the EC50 [4] of the same binder?
A: Its EC50 is 0.03 µg/mL.

Q: And the EC80 [4]?
A: The EC80 was 0.1 µg/mL.

Q: And the EC90 [4]?
A: Its EC90 is 0.18 µg/mL.

Q: Does B2 bind (mouse TSLP)?
A: Result: no binding (tested: about 5 µg/ml)

B3: Reference Antibody (antibody, human IgG2, lambda, V domains shown)
VH: QMQLVESGGGVVQPGRSLRLSCAASGFTFRTYGMHWVRQAPGKGLEWVAVIWYDGSNKHYADSVKGRFTITRDNSKNTLNLQMNSLRAEDTAVYYCARAPQWELVHEAFDIWGQGTMVTVSS
VL: SYVLTQPPSVSVAPGQTARITCGGNNLGSKSVHWYQQKPGQAPVLVVYDDSDRPSWIPERFSGSNSGNTATLTISRGEAGDEADYYCQVWDSSSDHVVFGGGTKLTVLG
notes: Comparator anti-TSLP antibody with an IgG2 heavy chain constant domain and lambda light chain
Q: What does the source list for B3?
A: binding result (mouse TSLP): no binding (tested: about 5 µg/ml); binding result (human IL-7): no binding (tested: about 5 µg/ml)

B4: AB-11 (antibody, V domains shown)
VH: B3 VH with W52S, D54S, N57Y, K58I, A97T, A99S, L104E, H106Y, F109L
VL: SYVLTQPPSVSVAPGQTARITCGGNNIGSFSVHWYQQKPGQAPVLVVYDDSDRPSWIPERFSGSNSGNTATLTISRGEAGDEADYYCQVWSSTSRHVVFGGGTKLTVL
Q: Which Kd [5] does the source give for B4 here?
A: The Kd was 0.000754 nM.

Q: What about the EC50 [6] of the same binder?
A: The EC50 was 0.173 nM.

Q: And the IC50 [7]?
A: Its IC50 is 0.243 nM.

B5: AB-8 (antibody, V domains shown)
VH: B3 VH with N57Y, K58T, A99S, L104D, V105I, H106F
VL: B4 VL with F30K, S91D, T93S, R95S, H96L
Q: How did the Kd [5] turn out when B5 was run?
A: Its Kd is 0.000335 nM.

B6: AB-1 (antibody, V domains shown)
VH: B3 VH with I51V, D54S, N57Y, K58T, A97S, A99S, L104D, V105I, H106F, F109M
VL: B4 VL with F30K, S91D, T93S, R95S, H96L
Q: How did the Kd [5] turn out when B6 was run?
A: Its Kd is 0.000208 nM.

Q: And the EC50 [6]?
A: The EC50 was 0.265 nM.

B7: AB-7 (antibody, V domains shown)
VH: B3 VH with D54S, S56A, N57Y, K58I, A97S, A99S, L104D, V105I, H106F, F109M
VL: B4 VL with I27L, F30Y, S91D, S92M, T93S, R95S, H96L
Q: Which Kd [5] does the source give for B7 here?
A: The Kd was 0.000184 nM.

Q: And the EC50 [6]?
A: The EC50 was 0.29 nM.

Q: What about the IC50 [7] of the same binder?
A: The IC50 was 0.162 nM.

B8: AB-9 (antibody, V domains shown)
VH: B3 VH with N57Y, K58T, A99S, L104S, V105I, H106F
VL: B4 VL with F30K, S91D, T93S, R95S, H96L
Q: Which Kd [5] does the source give for B8 here?
A: The Kd was 0.000496 nM.

Q: What about the IC50 [7] of the same binder?
A: The IC50 was 0.227 nM.

B9: AB-5 (antibody, V domains shown)
VH: QMQLVESGGGVVQPGRSLRLSCAASGFTFRTYGMHWVRQAPGKGLEWVAVVWYDGYDTHYADSVKGRFTITRDNSKNTLNLQMNSLRAEDTAVYYCSRSPQWEDIFESMDIWGQGTMVTVSS
VL: B4 VL with I27L, F30K, S91D, S92M, T93S, R95D, H96L
Q: Which results are given for B9?
A: Kd [5]: 0.00014 nM; EC50 [6]: 0.264 nM; IC50 [7]: 0.246 nM

B10: AB-2 (antibody, human IgG1, V domains shown)
VH: B9 VH with Y56S, D57Y, S97A, D104E, S108A
VL: B4 VL with F30K, V89I, S91D, T93S, R95S, H96L
Q: How did the Kd [5] turn out when B10 was run?
A: The Kd was 0.000123 nM.

Q: What about the EC50 [6] of the same binder?
A: The EC50 was 0.204 nM.

Q: And the IC50 [7]?
A: Its IC50 is 0.29 nM.

B11: AB-4 (antibody, V domains shown)
VH: B9 VH with V51I, D54S, Y56S, S97A, I111V
VL: B4 VL with N26Y, V89I, W90Y, S91V, T93A, H96L
Q: Which Kd [5] does the source give for B11 here?
A: The Kd was 0.000208 nM.

Q: And the EC50 [6]?
A: Its EC50 is 0.26 nM.

B12: AB-12 (antibody, V domains shown)
VH: B3 VH with I51V, K58T, L104S
VL: B4 VL with S29R, S91V, R95D, H96K
Q: Which results are given for B12?
A: Kd [5]: 0.00102 nM; EC50 [6]: 0.291 nM; IC50 [7]: 0.29 nM

B13: AB-14 (antibody, V domains shown)
VH: B3 VH with N57T
VL: B4 VL with F30K, S31N, S91D, S92E, T93S, R95D, H96E
Q: B13 was tested. Which Kd [5] did it give?
A: The Kd was 0.000877 nM.

Q: And the EC50 [6]?
A: Its EC50 is 0.264 nM.

Q: And the IC50 [7]?
A: Its IC50 is 0.186 nM.

B14: AB-3 (antibody, V domains shown)
VH: B3 VH with S56T, N57Y, K58T, A99S, L104S, V105I, H106F
VL: B4 VL with F30K, S91D, T93S, R95S, H96L
Q: With B14 as the binder, how does the Kd [5] read?
A: Its Kd is 0.000302 nM.

Q: What about the EC50 [6] of the same binder?
A: The EC50 was 0.237 nM.

Q: And the IC50 [7]?
A: Its IC50 is 0.232 nM.

B15: AB-10 (antibody, V domains shown)
VH: B9 VH with V51I, D54S, Y56T, D57T
VL: B4 VL with F30K, S31N, S91D, T93S, S94D, R95F, H96L
Q: What does the source list for B15?
A: Kd [5]: 0.000395 nM; EC50 [6]: 0.286 nM; IC50 [7]: 0.251 nM

B16: AB-13 (antibody, V domains shown)
VH: B3 VH with W52S, N57T, L104S, H106Y
VL: B4 VL with I27L, S91D, T93S, S94E, R95D, H96L
Q: With B16 as the binder, how does the EC50 [6] read?
A: Its EC50 is 0.23 nM.

Q: What about the IC50 [7] of the same binder?
A: Its IC50 is 0.223 nM.

B17: AB-6 (antibody, V domains shown)
VH: B9 VH with Y56S, T58I
VL: B4 VL with F30K, V89I, S91D, T93S, R95D
Q: With B17 as the binder, how does the Kd [5] read?
A: Its Kd is 0.000133 nM.

Q: What about the EC50 [6] of the same binder?
A: Its EC50 is 0.397 nM.
